Measurements as given in article doi:10.1101/2020.10.06.328377.

Key:
[1] = molecular target: MsSepF_(core) (Methanobrevibacter smithii SepF, C-terminal FtsZ-binding core, amino acids 54 to 149) (Methanobrevibacter smithii)
[2] = molecular target: MsSepF_(core) (Methanobrevibacter smithii SepF, C-terminal FtsZ-binding core, amino acids 54 to 149) (Methanobrevibacter smithii); experiment: thermal shift assay

stoichiometry N [1] | melting temperature of MsSepFcore upon addition of MsFtsZCTD (70.6 °C without) [2] [°C] | Molecule
2 |  | MsSepF_(core) (Methanobrevibacter smithii SepF, C-terminal FtsZ-binding core, amino acids 54 to 149) (domain or fragment)
 | 82.3 | NEDQLDDFIDGIF [FtsZCTD peptide (C-terminal domain of M. smithii FtsZ)]
